One block for each binder: values may come before it.
Assays:
h-MMP-9/h-TIMP-1 complex = molecular target: T1, h-MMP-9/h-TIMP-1 complex (human, UniProt P14780 107-444; P01033 24-207, limits assumed); test: SPR Biacore 3000, antibody amine-coupled to CM5 chip (direct capture)
T1 construct: also called huTIMP-1/cat-huMMP-9; MMP-9/TIMP-1 complex
Experimental: (§1) Experiments were performed at 25° C. with the help of a Biacore 3000 instrument. The MMP-9 binding protein (M0166F10) and the M0237-D02 antibody were coated to a CM5 chip either via standard amine coupling or using an anti-Fc antibody surface. Then either the active, human MMP-9 catalytic domain (BIOMOL, SE-244), the human pro-MMP-9 (R&D, 911-MP), the human TIMP-1 (R&D, 970-TM) or a h-MMP-9/h-TIMP-1 complex were flowed over the antibody surfaces, and binding was recorded.
(§2) It was shown that the human MMP-9 catalytic domain binds to M0166-F10, whether this antibody is directly captured via amine coupling or captured with an anti-Fc antibody surface.

[1] = molecular target: T2, active human MMP-9 catalytic domain (BIOMOL, SE-244) (human, UniProt P14780 107-444, limits assumed); test: plot of kobs vs antibody concentration from inhibition progress curves, 25 C
T2 construct: domain: catalytic domain; also called Cat-huMMP-9; cat-huMMP-9
T2 sequence (P14780 107-444 limits assumed): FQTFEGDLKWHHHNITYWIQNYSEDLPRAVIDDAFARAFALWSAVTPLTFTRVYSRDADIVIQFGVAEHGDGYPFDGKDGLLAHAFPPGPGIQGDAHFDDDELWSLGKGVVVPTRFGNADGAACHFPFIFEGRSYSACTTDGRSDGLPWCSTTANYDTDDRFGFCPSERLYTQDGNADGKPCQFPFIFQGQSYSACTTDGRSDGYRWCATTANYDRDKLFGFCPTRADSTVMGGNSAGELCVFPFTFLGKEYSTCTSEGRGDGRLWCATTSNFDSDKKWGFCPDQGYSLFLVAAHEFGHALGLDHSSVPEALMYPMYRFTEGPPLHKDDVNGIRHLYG
Experimental: Materials: [0447] Substrate: Mca-KPLGL-Dap(Dnp)-AR-NH₂ (M-2350) from BACHEM (521575). A 10 mM stock solution was prepared in DMSO. [0448] Human MMP-9 catalytic domain (BIOMOL, SE-244). [0449] M0237-D02 hIgG1: 2517-068. [0450] All measurements were performed at 25° C. in TCNB: 50 mM Tris/HCl, 10 mM CaCl₂, 150 mM NaCl 0.05% Brij 35, pH 7.5. [0451] 96-well black plates from Perkin Elmer (6005270) [0452] Spectramax M2e to measure fluorescence emission of the substrate upon hydrolysis (λexc=328 nm and λₑₘ=393 nm)
The enzyme (at a final concentration ranging from 1.5 to 12.3 nM), the substrate (9 μM final) and the M0237-D02 antibody were mixed, and the fluorescence was immediately recorded in order to follow the hydrolysis of the substrate. The observed inhibition rate (kobs) was obtained by analyzing the progress curves with a single exponential. The value for kₒₙ and koff were calculated from the plot of the kobs vs. the antibody concentration using the following equation: […]

[2] = molecular target: Mouse MMP-9 (R&D, 909-MM), APMA-activated (mouse, UniProt P41245 108-730, limits assumed); test: enzyme inhibition with fluorogenic peptide substrate Mca-KPLGL-Dap(Dnp)-AR-NH2; Ki from IC50 vs substrate concentration, 30 C
Sequence of Mouse MMP-9 (R&D, 909-MM), APMA-activated (P41245 108-730 limits assumed): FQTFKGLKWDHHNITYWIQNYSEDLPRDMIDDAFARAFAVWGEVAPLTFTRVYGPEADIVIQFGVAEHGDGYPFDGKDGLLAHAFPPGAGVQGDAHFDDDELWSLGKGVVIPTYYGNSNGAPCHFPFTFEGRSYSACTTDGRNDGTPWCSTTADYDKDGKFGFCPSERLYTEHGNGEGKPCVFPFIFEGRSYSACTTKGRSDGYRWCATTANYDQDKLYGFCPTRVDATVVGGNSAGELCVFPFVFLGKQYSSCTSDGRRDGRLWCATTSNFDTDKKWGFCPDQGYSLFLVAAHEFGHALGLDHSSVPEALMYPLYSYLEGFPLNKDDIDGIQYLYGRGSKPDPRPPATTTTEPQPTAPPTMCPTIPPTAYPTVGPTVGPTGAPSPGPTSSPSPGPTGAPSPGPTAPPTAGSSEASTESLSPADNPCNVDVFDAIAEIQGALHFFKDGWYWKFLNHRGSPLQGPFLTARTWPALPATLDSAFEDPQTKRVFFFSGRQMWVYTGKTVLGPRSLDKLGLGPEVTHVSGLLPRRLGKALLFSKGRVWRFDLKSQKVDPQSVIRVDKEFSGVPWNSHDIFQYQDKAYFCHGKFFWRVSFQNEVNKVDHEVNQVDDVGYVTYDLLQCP
Experimental: (§3) Materials: [0424] Substrate: Mca-KPLGL-Dap(Dnp)-AR-NH₂ (M-2350) from BACHEM (521575). A 10 mM stock solution was prepared in DMSO. [0425] Enzymes: [0426] Human MMP-9 catalytic domain (BIOMOL, SE-244). Enzyme concentration was measured by titration with TIMP-1 (2522-104) [0427] Mouse MMP-9 (R&D, 909-MM), APMA-activated. [0428] M0237-D02 hIgG1: 2517-014. Dialysed against TCN. [0429] TCNB: 50 mM Tris/HCl, 10 mM CaCl₂, 150 mM NaC, […] Brij 35, pH 7.5. [0430] 96-well black plates from Perkin Elmer (6005270) [0431] Spectramax M2e to measure fluorescence emission of the substrate upon hydrolysis (temperature control set at 30° C.; λexc=328 nm and λₑₘ=393 nm)
(§4) The enzyme (final concentration=0.23 and 0.17 nM for the human and mouse MMP-9, respectively) was preincubated with various concentrations (0-50 nM) of M0237-D02 for 1 h at 30° C. The substrate was then added to a final concentration ranging from 5 to 40 μM and initial rates were recorded.

[3] = molecular target: T2, active human MMP-9 catalytic domain …; test: as above
Experimental: as §3, §4

[4] = molecular target: T3, human pro-MMP-9 (R&D, 911-MP) (human, UniProt P14780 20-707); test: SPR Biacore 3000, antibody amine-coupled to CM5 chip (direct capture)
T3 construct: Zymogen form; also called Pro-huMMP-9
T3 sequence (P14780 20-707): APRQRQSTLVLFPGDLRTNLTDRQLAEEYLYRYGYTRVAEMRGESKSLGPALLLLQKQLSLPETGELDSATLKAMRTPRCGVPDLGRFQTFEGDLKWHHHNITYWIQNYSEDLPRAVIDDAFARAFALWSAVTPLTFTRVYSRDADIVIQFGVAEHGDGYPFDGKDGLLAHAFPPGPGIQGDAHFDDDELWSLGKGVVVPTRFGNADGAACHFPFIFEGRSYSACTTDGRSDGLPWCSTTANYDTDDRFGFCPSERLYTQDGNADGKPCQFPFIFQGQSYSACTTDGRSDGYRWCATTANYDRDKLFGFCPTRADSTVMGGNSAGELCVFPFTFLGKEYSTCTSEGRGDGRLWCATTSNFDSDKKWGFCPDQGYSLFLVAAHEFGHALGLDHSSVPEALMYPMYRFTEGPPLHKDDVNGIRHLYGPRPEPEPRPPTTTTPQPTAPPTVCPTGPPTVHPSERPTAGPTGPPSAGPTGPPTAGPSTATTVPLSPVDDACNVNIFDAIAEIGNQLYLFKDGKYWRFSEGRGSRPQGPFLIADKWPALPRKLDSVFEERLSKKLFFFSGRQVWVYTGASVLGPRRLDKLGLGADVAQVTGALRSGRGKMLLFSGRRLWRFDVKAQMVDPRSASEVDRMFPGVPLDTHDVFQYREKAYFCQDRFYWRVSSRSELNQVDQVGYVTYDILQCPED
Experimental: as §1, §2

[5] = molecular target: T4, human TIMP-1 (R&D, 970-TM) (human, UniProt P01033 24-207); test: as above
T4 construct: also called huTIMP-1; h-TIMP-1
T4 sequence (P01033 24-207 limits assumed): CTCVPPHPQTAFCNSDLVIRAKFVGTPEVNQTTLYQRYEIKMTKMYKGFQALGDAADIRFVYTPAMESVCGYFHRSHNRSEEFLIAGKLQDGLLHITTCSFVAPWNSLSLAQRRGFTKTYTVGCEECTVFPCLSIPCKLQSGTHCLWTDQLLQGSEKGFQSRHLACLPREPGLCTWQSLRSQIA
Experimental: as §1, §2

T1 sequence (P14780 107-444 limits assumed, chain 1 of 2): as the sequence (P14780 107-444 limits assumed) above
T1 sequence (P01033 24-207 limits assumed, chain 2 of 2): as the sequence (P01033 24-207 limits assumed) above

binding result (h-MMP-9/h-TIMP-1 complex): no binding | koff [1]: ~0.0004 s⁻¹ | kon [1]: ~70000 M⁻¹ s⁻¹ | Ki [2]: 1.3 nM | Ki [3]: 0.92 nM
B1: 539A-M0237-D02 hIgG1 (antibody, V domains shown)
VH: EVQLLESGGGLVQPGGSLRLSCAASGFTFSQYPMWWVRQAPGKGLEWVSYIVPSGGRTYYADSVKGRFTISRDNSKNTLYLQMNSLRAEDTAVYYCAKDRAYGDYVGWNGFDYWGQGTLVTVSS
VL: DIQMTQSPATLSLSPGERATLSCRASQSISSFLAWYQQKPGQAPRLLIYDASYRATGIPARFSGSGSGTDFTLTISSLEPEDYAVYYCQQRGNWPITFGQGTRLEIKR
notes: Tested as hIgG1; also called M237-D02; DL8

binding result [4]: no binding | binding result (h-MMP-9/h-TIMP-1 complex): no binding | binding result [5]: no binding
B2: 539A-M0166-F10 (antibody, V domains shown)
VH: EVQLLESGGGLVQPGGSLRLSCAASGFTFSPYLMNWVRQAPGKGLEWVSSIYSSGGGTGYADSVKGRFTISRDNSKNTLYLQMNSLRAEDTAVYYCARIYHSSSGPFYGMDVWGQGTTVTVSS
VL: QSELTQPPSASAAPGQRVTISCSGSSSNIGSNTVTWYQKLPGTAPKLLIYNNYERPSGVPARFSGSKSGTSASLAISGLQSEDEADYYCATWDDSLIANYVFGSGTKVTVLG
notes: also called DL15

Reference: patent US20110300157A1 (DYAX, published 2011)
